The record followed here is US20210009693A1 (MABSPACE BIOSCIENCES SUZHOU, published 2021).

For orientation: EC50 (read off the curve) means the concentration needed to bring the measured effect to its halfway point. Broadly, the Kd is a measure of binding affinity in units of concentration. For orientation: koff means the rate constant with which the complex falls apart. The term kon denotes a measure of how fast the partners come together. Low values mean slow association, high ones fast association.

Assay [1] concerns the target T1, Recombinant Human PD-L1/CD274 Protein (hPD-L1-his) (human, UniProt Q9NZQ7 19-238).
T1 construct: range 19-238; ACRO Biosystem PD1-H5229, made in HEK293; also called human PD-L1-his; hPD-L-his
The assay is described as follows: ELISA on coated hPD-L1-his; bound at pH7.4, then 2 h at pH7.4.

Assay [2] deals with T1, Recombinant Human PD-L1/CD274 Protein …. The assay is described as follows: ELISA on coated hPD-L1-his; bound at pH7.4, then 2 h at pH5.5. (ELISA stands for enzyme-linked immunosorbent assay.)
Assay [3] deals with T2, human PD-L1 expressed on cells (human, UniProt Q9NZQ7 19-290).
T2 construct: whole, on cells; also called hPD-L1 expressed on HCC827; hPD-L1 on MC38/hPD-L1 cells
The assay is described as follows: FACS, IFN-gamma stimulated HCC827 cells. The protocol: Log phase IFN-γ stimulated (500U/ml for 2 days) HCC827 cells were collected and resuspended in blocking buffer (5% BSA+PBS). 2×10\hat{ }5 cells were added to each tube and then washed once with PBS (1500 rpm, 5 mins, RT). The 100 μl/tube serial diluted biotinylated PD-L1 antibodies with blocking buffer were added into corresponding tubes and incubate at 4° C. for 1 hr.
(In flow cytometry, cells or beads pass a laser one at a time.)

Assay [4] deals with T1, Recombinant Human PD-L1/CD274 Protein …. The assay is described as follows: ELISA on coated hPD-L1-his; bound at pH7.4, then 2 h at pH7.4. This is another data set of the same source.
Assay [5] shares this target. Nature of the assay: ELISA on coated hPD-L1-his; bound at pH7.4, then 2 h at pH5.5. This is another data set of the same source.
The target of assay [6] is T2, human PD-L1 expressed on cells. Nature of the assay: blocking FACS on HCC827 cells; blocked ligand: biotinylated hPD-1-N297A. The protocol: (§1) Log phase IFN-γ stimulated (500U/ml for 2 days) HCC827 cells were collected and resuspended in blocking buffer (5% BSA+PBS). 2×10\hat{ }5 cells were added to each tube and then washed once with PBS (1500 rpm, 5 mins, RT). The 100 μl/tube serial diluted PD-L1 antibodies (see FIG. 8) with blocking buffer were added into corresponding tubes and incubate at 4° C. for 1 hr. […] After washing for three times with PBS, 100 μl/tube streptavidin-PE 1:200 (EBiosciences) in blocking buffer was added to each tube. The cells were incubated at 4° C. for 1 hr and then washed twice with PBS, followed by resuspending cells in 150 μl PBS for each sample. The cells were then transferred into FACS tube and the binding of the antibodies to the cells were detected with flow cytometry (ACEA Bioscience Novocyte).

Assay [7] deals with hPD-L1 (antigen of the Biacore assay) (human, UniProt Q9NZQ7 19-238, limits assumed). The assay is described as follows: SPR (Biacore), antibody captured on anti-human Fc, antigen in flow. Here is the method: A CM5 sensor chip was activated in each flow cell by 7-min injection (10 μl/min) of freshly prepared 1:1 50 mM N-hydroxysuccinimide (NHS): 200 mM 1-ethyl-3-(3-dimethylaminopropyl)-carbodiimide (EDC). Then anti-human Fc antibody (GE Healthcare) in a concentration of 10 μg/ml in 10 mM sodium acetate buffer PH 5.0 was injected onto the activated chip at 10 μl/min (HBS-EP running buffer: 10 mM HEPES, 150 mM NaCl, 3.4 mM EDTA, 0.005% surfactant P20, pH 7.4). The remaining active coupling sites were blocked by 7 min injection of 1M ethanolamine at 10 μl/min. The immobilization level of each flow cell is ˜9000RU. Antibodies were captured in FC2 by anti-human Fe IgG (GE Healthcare) to 200˜300RU. FC1 was used as the reference cell. Antigen was injected at varying concentrations after capture of antibody. The association time for antibody binding antigen is 180s. Surface Regeneration condition is 120s at 10 μl/min in Gly pH1.5. The signals with captured antibody subtracted from those without captured antibody were calculated with Biacore X100 evaluation software ver. 2.0 (Biacore).
(In general: SPR reads the build-up and loss of mass on a sensor chip optically.)

Assay [8] addresses T3, Human PD-L1/CD274 with C-Fc Tag (hPD-L1-Fc) (human, UniProt Q9NZQ7 19-238).
T3 construct: range 19-238; ACRO Biosystem PD1-H5258, made in HEK293; also called human PD-L1-Fc; not shown: Fc fragment of human IgG1 at C-terminus
The assay is described as follows: blocking ELISA on coated hPD-L1-Fc; blocked ligand: biotinylated hPD-1-N297A. The protocol: High-binding clear polystyrene 96 well plates (Nunc) were coated with 100 μl/well of coating solution consisting of 1 μg/ml hPD-L1-Fc overnight at 4° C. Then the plates were washed once on an automatic plate washer using washing buffer (PBS+0.1% Tween 20 (Sigma)). 200 μl of blocking buffer (PBS+1% BSA+1% normal goat serum+0.05% Tween-20) was added to each well and incubated 2 hours at room temp. […] The plates were then washed 3 times using the method described above. […] After the plates were washed 3 times, 100 μl/well of a solution of 1:5000 diluted HRP conjugated Neutravidin antibody (Pierce) in dilution buffer was then added to each well of the plate. After that the ELISA plates were allowed to incubate for 60 min at RT, then the plates were washed 3 times with 250 μl/well washing buffer. Finally, 100 μl/well of TMB was added to each well and the reaction was terminated using 0.64M H₂SO₄. The plates were read on a Thermo Multiscan FC at 450 nM (see FIG. 18A to 18D).

Assay [9] concerns the target T1, Recombinant Human PD-L1/CD274 Protein …. The assay is described as follows: ELISA, coated hPD-L1-his, acidic wash and incubation after binding at pH7.4. The protocol:
(§2) The pH-dependent binding affinity was further measured at various pH values, such as pH4, pH4.5, pH5.0, pH5.5, pH6.0, pH7.4. The measurement by ELISA was conducted similarly to the method described above. High-binding clear polystyrene 96 well plates were coated with 100 μl/well of a 0.5 μg/ml hPD-L1-his in high pH coating buffer and incubated overnight at 4° C. Then the coated plates were washed 3 times with shaking for 10s on an automatic plate washer with PBS+0.1% Tween 20 (Amresco). Then 200 μl of blocking buffer (1% BSA (Solarbio)+1% normal goat serum (Solarbio)+0.05% Tween 20 (Amresco)) was added to each well and the plates were then incubated for 2 hours at room temperature and washed 3 times as above. […] The plates were then washed once with 250 μl/well washing buffer at pH7.4, pH6.0, pH5.5, pH5.0, pH4.5 or pH4.0 and then 100 μl/well pH7.4 or pH5.5 washing buffer was added and the incubation was continued for 2 hours at RT with shaking. Afterwards, the plates was washed 3 times washing buffer at pH7.4 and 100 μl/well of a solution of HRP conjugated goat anti-hIgG HRP antibody (1:20000, Abcam) in pH7.4 dilution buffer was then added to each well of the plate. After that the plates were allowed to incubate for 60 min at room temperature followed by washing 3 times with 250 μl/well pH7.4 washing buffer. Finally, 100 μl/well of TMB was added to each well for 15 min and the reaction was terminated using 50 μl/well of 0.16M/L sulfuric acid. The plates were read on a Thermo Multiscan FC at 450 nm (see FIG. 23A-23F). The measurements were performed in triplicate.

The target is the same in assay [10]. Nature of the assay: ELISA on coated hPD-L1-his.
Assay [11] concerns the target T4, human PD-L1-Fc mutant E58A (human).
T4 construct: Position 58 counts on native human PD-L1 (NP_054862.1); also called E58A mutant
The assay is described as follows: ELISA on captured PD-L1-Fc, as in Example 18A.

In assay [12] the target is T5, wild type human PD-L1-Fc protein (SEQ ID NO: 107) (human).
T5 construct: Extracellular human PD-L1 (amino acid 19-238) with Fc fragment of human IgG1, expressed in 293T cells and used as culture supernatant; also called WT PD-L1; wild-type PD-L1
The assay is described as follows: ELISA on captured PD-L1-Fc, as in Example 18A.

Assay [13] addresses T2, human PD-L1 expressed on cells. The assay is described as follows: FACS, IFN-gamma stimulated HCC827 cells. This is another data set of the same source.
Assay [14] has as its target T1, Recombinant Human PD-L1/CD274 Protein …. The assay is described as follows: ELISA on coated hPD-L1-his; bound at pH7.4, then 2 h at pH5.5. The protocol:
as §2, with “Finally, 100 μl/well of TMB was added to each well for 15 min and the reaction was terminated using 50 μl/well of 0.16M/L sulfuric acid.” left out, “The measurements were performed in triplicate.” left out
This is another data set of the same source.

Assay [15] has as its target T2, human PD-L1 expressed on cells. Nature of the assay: blocking FACS on HCC827 cells; blocked ligand: biotinylated hPD-1-N297A. The protocol:
as §1, with “RT).” for “RT). The 100 μl/tube serial diluted PD-L1 antibodies (see FIG. 8) with blocking buffer were added into corresponding tubes and incubate at 4° C. for 1 hr.”, “1:200” for “1:200 (EBiosciences)”, “Novocyte) (see FIGS. 20A and 20B).” for “Novocyte).”
The source holds these as a separate data set.

Assay [16] concerns the target T1, Recombinant Human PD-L1/CD274 Protein …. The assay is described as follows: ELISA on coated hPD-L1-his; bound at pH7.4, then 2 h at pH7.4. The protocol: as §2
This is another data set of the same source.

For assay [17] the target is unchanged. Nature of the assay: ELISA on coated hPD-L1-his; bound at pH7.4, then 2 h at pH5.5. This is another data set of the same source.
Assay [18] shares this target. The assay is described as follows: ELISA on coated hPD-L1-his; bound at pH7.4, then 2 h at pH7.4. The source holds these as a separate data set.

Numbering of substitutions follows the chain as printed. Names may count otherwise. Read-outs that look alike come from different tables or passages of the source. Where only a bound is given, the exact number is not on record here.

T5 sequence (chain, as listed by the source limits assumed): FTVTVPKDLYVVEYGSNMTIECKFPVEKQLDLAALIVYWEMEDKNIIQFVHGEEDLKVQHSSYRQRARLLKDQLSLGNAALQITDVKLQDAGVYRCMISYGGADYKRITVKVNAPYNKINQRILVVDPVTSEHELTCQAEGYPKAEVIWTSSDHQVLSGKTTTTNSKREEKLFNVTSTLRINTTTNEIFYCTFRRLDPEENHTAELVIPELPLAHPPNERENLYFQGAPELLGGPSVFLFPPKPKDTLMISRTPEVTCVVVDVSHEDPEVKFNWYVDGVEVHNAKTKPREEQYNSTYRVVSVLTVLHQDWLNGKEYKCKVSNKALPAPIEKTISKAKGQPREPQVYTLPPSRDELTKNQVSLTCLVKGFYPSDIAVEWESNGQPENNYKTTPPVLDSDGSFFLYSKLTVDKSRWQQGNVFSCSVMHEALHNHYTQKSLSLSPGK
T2 sequence (Q9NZQ7 19-290): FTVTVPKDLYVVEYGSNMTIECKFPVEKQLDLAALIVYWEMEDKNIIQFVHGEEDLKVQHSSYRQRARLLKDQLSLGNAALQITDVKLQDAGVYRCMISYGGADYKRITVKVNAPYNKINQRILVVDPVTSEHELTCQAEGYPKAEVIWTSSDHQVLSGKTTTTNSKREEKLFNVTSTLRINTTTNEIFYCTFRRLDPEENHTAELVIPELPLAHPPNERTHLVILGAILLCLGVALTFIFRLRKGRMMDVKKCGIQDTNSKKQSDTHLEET
Chain of hPD-L1 (antigen of the Biacore assay) (Q9NZQ7 19-238 limits assumed): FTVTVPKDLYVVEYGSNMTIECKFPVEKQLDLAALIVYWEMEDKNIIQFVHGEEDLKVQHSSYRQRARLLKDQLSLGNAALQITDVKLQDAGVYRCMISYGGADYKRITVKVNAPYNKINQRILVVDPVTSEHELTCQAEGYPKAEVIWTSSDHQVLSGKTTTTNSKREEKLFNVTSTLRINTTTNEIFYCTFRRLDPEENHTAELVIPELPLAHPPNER
T1 sequence (Q9NZQ7 other isoform, or with tags, fused parts or gaps limits assumed): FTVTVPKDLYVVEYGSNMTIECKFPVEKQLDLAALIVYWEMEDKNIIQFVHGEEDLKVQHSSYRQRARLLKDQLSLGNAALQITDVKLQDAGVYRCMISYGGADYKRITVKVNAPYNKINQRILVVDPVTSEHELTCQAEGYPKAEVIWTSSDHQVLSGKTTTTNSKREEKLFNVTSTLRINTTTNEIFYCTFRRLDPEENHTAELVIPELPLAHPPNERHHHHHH
T4 sequence (chain, as listed by the source E58A E58A limits assumed): as the sequence (chain, as listed by the source limits assumed) above, with E40A counted along it
T3 sequence (Q9NZQ7 19-238 limits assumed): as the sequence (Q9NZQ7 19-238 limits assumed) above

B1: 21F11-C (antibody, V domains shown)
VH: QVQLQQPGAELVKPGASVKLSCKASGYTFTSNWMHWVKQRPGQGLEWIGMMHPNSGSINYNEKFKNKATLTADKSSSTAYMQLSSLTSEDSAVYYCARSYYGSSPYYFDYWGQGTTLTVSS
VL: DIQMTQTTSSLSASLGDRVTISCRASQDISNYLNWYQQKPDGTVKLLIYYTSRLHSGVPSRFSGSGSGTDFSLTISNLEEEDIATYFCQQGDTLPWTFGGGTKLEIK
notes: Mouse variable regions fused to a human IgG1 constant region; also called 21F11-chimeric; chimeric antibody 21F11
In the case of B1, the “EC50 (read off the curve)” value in assay [1] and in assay [2] was ~0.01 µg/mL each time.

B2: 26F5-C (antibody, V domains shown)
VH: QVQLQQPGAELVKPGASVKLSCKASGYTFPSYWMHWMKQRPGQGLEWIGMIQPSTSGTIYNERFKNQVTLTVDKSSSTAYMQLSSQTSEDSAVYYCARGTGTVDYFDYWGQGTTLTVSS
VL: DIVLTQSPASLAVSLGQRATISCRASESVDSYGNSFIHWYQQKPGQPPKLLIHRASNLESGIPATFSGSGSRTDFTLTINPVEADDVATYYCQQSKEDPYTFGGGTKLEIK
notes: Mouse variable regions fused to a human IgG1 constant region; also called 26F5-chimeric; chimeric antibody 26F5
As for B2, the “EC50 (read off the curve)” value in assay [3] was ~0.1 µg/mL; in [4] it was ~0.01 µg/mL; in [5], ~0.02 µg/mL. For the same molecule, in assay [6], the “IC50 (read off the curve)” value was ~0.09 µg/mL.

B3: 23A11-H3L5 (antibody, V domains shown)
VH: LVQLVQSGAEVKKPGASVKLSCKASGYIFTTYWIHWVKQRPGQGLEWIGMIQPNSGGTKYNDQFKNRATLTVDKSISTAYMELSRLTSDDTAVYYCARGAGTVDYFDYWGQGTTLSISS
VL: DIVLTQSPASLAVSVGQRATITCRASESVDIYGNSFMHWYQQKPGQAPKLLIYRASNLESGIPARFSGSGSRTDFTLTINPVEANDTATYYCQQSNDDPYTFGGGTKLETK
notes: Human IgG1 constant region with N297A; biotinylated in the alanine-scan ELISA; also called 23A11-H3L5-bio; humanized 23A11
B3: in [7], binding was characterised by a dissociation constant (Kd) of 43.2 nM, the koff was determined as 0.0223 s⁻¹ and the kon worked out at 517000 M⁻¹ s⁻¹. Further, the “IC50 (read off the curve)” value in [8] was ~0.05 µg/mL. For the same molecule, in assay [9], the “binding signal at pH5 as percent of the signal at pH7.4” value was < 50% and the “binding signal at pH5.5 as percent of the signal at pH7.4” value is < 75%. In addition, the “EC50 (read off the curve)” value in [10] was ~0.002 µg/mL. In assay [11], the “% of binding of Ab to E58A mutant vs. that to WT PD-L1” value was found to be 8.3%, the “Mean OD450” value came to 0.111 OD450, the “OD450 nM of sample-1” value came out at 0.128 OD450 and the “OD450 nM of sample-2” value came out at 0.094 OD450. Besides, in [12], the “Mean OD450” value was determined as 1.34 OD450, the “OD450 nM of sample-1” value worked out at 1.22 OD450 and the “OD450 nM of sample-2” value was found to be 1.47 OD450. For the same molecule, the “EC50 (read off the curve)” value in [13] is ~0.02 µg/mL. Besides, the “EC50 (read off the curve)” value in assay [14] is ~0.02 µg/mL. Also, in assay [15], the “IC50 (read off the curve)” value is ~0.05 µg/mL. In [16], the “EC50 (read off the curve)” value was ~0.01 µg/mL.

B4: 23A11-H3L5 CHO (antibody, V domains shown)
VH: B3 VH with L1Q
VL: B3 VL with N85Q
notes: CHO-produced counterpart of m16; also called 23A11-H3L5 produced in CHO cells
B4: the concentration giving a half-maximal response (EC50 (read off the curve)) in assay [17] was ~0.008 µg/mL; in assay [18], ~0.006 µg/mL. The “IC50 (read off the curve)” value in [15] was ~0.05 µg/mL.
